To fix the notation:
B1: rat CYP24A1 (cytochrome P450 24A1), S57D, without the 32 residue leader sequence (enzyme, UniProt Q09128 33-514, looked up)
chain: SASRAPKEVPLCPLMTDGETRNVTDLPGPTNWPLLGSLLEIFWKGGLKKQHDTLAEYHKKYGQIFRMKLGSFDSVHLGSPSLLEALYRTESAHPQRLEIKPWKAYRDHRNEAYGLMILEGQEWQRVRSAFQKKLMKPVEIMKLDKKINEVLADFLERMDELCDERGRIPDLYSELNKWSFESICLVLYEKRFGLLQKETEEEALTFITAIKTMMSTFGKMMVTPVELHKRLNTKVWQAHTLAWDTIFKSVKPCIDNRLQRYSQQPGADFLCDIYQQDHLSKKELYAAVTELQLAAVETTANSLMWILYNLSRNPQAQRRLLQEVQSVLPDNQTPRAEDLRNMPYLKACLKESMRLTPSVPFTTRTLDKPTVLGEYALPKGTVLTLNTQVLGSSEDNFEDSHKFRPERWLQKEKKINPFAHLPFGIGKRMCIGRRLAELQLHLALCWIIQKYDIVATDNEPVEMLHLGILVPSRELPIAFRPR

Test [1] addresses T1, full-length rat Adrenodoxin (Adx), wild type (rat, UniProt P24483 65-188).
T1 sequence (looked up): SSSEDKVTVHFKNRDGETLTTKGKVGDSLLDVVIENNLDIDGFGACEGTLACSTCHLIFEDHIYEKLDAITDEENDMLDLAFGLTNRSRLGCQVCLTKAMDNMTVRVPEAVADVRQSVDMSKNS
The experiment in a line: cross-linking.

Test [2] deals with B1. In words: NMR titration.

One may read the stoichiometry N as a count of units in the complex or per binding partner. Take B1: the “stoichiometry N” value in test [1] amounted to 1.

B2: rat Adrenodoxin L80Q (natural protein, UniProt P24483 65-188, looked up)
chain: SSSEDKVTVHFKNRDGETLTTKGKVGDSLLDVVIENNLDIDGFGACEGTLACSTCHLIFEDHIYEKLDAITDEENDMLDQAFGLTNRSRLGCQVCLTKAMDNMTVRVPEAVADVRQSVDMSKNS
Take B2: in test [2], the binding result is listed as “binds”.

Source of the values: PMC7233526 (Biochemistry, 2020).
